According to paper PMC4131897 (Biochemistry, 2014):

T1: BjPutA (proline utilization A) (Bradyrhizobium diazoefficiens, UniProt Q89E26)
T1 sequence (Q89E26 1-999): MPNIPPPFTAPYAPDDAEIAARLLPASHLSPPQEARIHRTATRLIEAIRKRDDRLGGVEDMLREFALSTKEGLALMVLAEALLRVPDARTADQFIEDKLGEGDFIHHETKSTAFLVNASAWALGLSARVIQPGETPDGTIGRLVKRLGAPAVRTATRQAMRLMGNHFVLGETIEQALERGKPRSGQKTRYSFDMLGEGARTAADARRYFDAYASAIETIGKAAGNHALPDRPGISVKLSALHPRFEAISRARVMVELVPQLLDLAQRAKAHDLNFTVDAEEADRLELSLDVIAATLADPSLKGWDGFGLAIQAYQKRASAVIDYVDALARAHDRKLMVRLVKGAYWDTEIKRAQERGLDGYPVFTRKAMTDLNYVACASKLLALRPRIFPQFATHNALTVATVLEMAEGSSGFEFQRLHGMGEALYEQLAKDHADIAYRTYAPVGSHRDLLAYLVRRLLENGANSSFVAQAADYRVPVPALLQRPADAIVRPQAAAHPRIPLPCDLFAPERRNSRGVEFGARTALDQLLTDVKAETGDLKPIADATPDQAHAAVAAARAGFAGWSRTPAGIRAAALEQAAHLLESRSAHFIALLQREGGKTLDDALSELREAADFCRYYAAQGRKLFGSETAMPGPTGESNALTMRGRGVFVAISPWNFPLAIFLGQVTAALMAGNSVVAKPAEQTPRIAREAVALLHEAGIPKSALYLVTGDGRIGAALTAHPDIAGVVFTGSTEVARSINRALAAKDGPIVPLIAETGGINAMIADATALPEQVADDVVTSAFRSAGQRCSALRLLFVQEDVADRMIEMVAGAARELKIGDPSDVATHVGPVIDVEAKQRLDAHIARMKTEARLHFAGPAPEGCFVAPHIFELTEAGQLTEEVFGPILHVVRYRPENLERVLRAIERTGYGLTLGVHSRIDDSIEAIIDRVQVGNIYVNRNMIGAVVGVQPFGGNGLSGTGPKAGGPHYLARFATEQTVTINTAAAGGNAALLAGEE


How the values were obtained:
[1] = target: T1, BjPutA (proline utilization A); assay: coupled PRODH-P5CDH assay, NADH formation at […] nm, substrate inhibition fit; type: biochemical; conditions: 0.1 mM CoQ1, 0.2 mM NAD+, 50 mM potassium phosphate pH 7.5, 25 mM NaCl
purified protein [2] = substrate: COC1=C(OC)C(=O)C(CC=C(C)C)=C(C)C1=O; assay: purified protein; conditions: 150 mM proline, 50 mM potassium phosphate pH 7.5, 23 °C
purified protein [3] = substrate: O=C(O)[C@@H]1CCCN1; assay: purified protein; conditions: 250 μM CoQ1, 50 mM potassium phosphate pH 7.5, 23 °C

| Ki [1] [mM] | Molecule | Km (purified protein [2]) [mM] | kcat (purified protein [2]) [s⁻¹] | kcat/Km (purified protein [2]) [M⁻¹ s⁻¹] | Km (purified protein [3]) [mM] | kcat (purified protein [3]) [s⁻¹] | kcat/Km (purified protein [3]) [M⁻¹ s⁻¹] |
| --- | --- | --- | --- | --- | --- | --- | --- |
| 24 ± 12 | O=C(O)[C@@H]1CCCN1 [proline] |  |  |  |  |  |  |
|  | BjPutA (proline utilization A) (Bradyrhizobium diazoefficiens USDA 110) (protein) MPNIPPPFTAPYAPDDAEIAARLLPASHLSPPQEARIHRTATRLIEAIRKRDDRLGGVEDMLREFALSTKEGLALMVLAEALLRVPDARTADQFIEDKLGEGDFIHHETKSTAFLVNASAWALGLSARVIQPGETPDGTIGRLVKRLGAPAVRTATRQAMRLMGNHFVLGETIEQALERGKPRSGQKTRYSFDMLGEGARTAADARRYFDAYASAIETIGKAAGNHALPDRPGISVKLSALHPRFEAISRARVMVELVPQLLDLAQRAKAHDLNFTVDAEEADRLELSLDVIAATLADPSLKGWDGFGLAIQAYQKRASAVIDYVDALARAHDRKLMVRLVKGAYWDTEIKRAQERGLDGYPVFTRKAMTDLNYVACASKLLALRPRIFPQFATHNALTVATVLEMAEGSSGFEFQRLHGMGEALYEQLAKDHADIAYRTYAPVGSHRDLLAYLVRRLLENGANSSFVAQAADYRVPVPALLQRPADAIVRPQAAAHPRIPLPCDLFAPERRNSRGVEFGARTALDQLLTDVKAETGDLKPIADATPDQAHAAVAAARAGFAGWSRTPAGIRAAALEQAAHLLESRSAHFIALLQREGGKTLDDALSELREAADFCRYYAAQGRKLFGSETAMPGPTGESNALTMRGRGVFVAISPWNFPLAIFLGQVTAALMAGNSVVAKPAEQTPRIAREAVALLHEAGIPKSALYLVTGDGRIGAALTAHPDIAGVVFTGSTEVARSINRALAAKDGPIVPLIAETGGINAMIADATALPEQVADDVVTSAFRSAGQRCSALRLLFVQEDVADRMIEMVAGAARELKIGDPSDVATHVGPVIDVEAKQRLDAHIARMKTEARLHFAGPAPEGCFVAPHIFELTEAGQLTEEVFGPILHVVRYRPENLERVLRAIERTGYGLTLGVHSRIDDSIEAIIDRVQVGNIYVNRNMIGAVVGVQPFGGNGLSGTGPKAGGPHYLARFATEQTVTINTAAAGGNAALLAGEE | 0.105 ± 0.006 | 2.9 ± 0.1 | 27600 ± 1710 | 43 ± 5 | 3.1 ± 0.1 | 72 ± 8.6 |
